Source: article PMC9130954

What was measured:
[1] = target: Photosystem I (PSI) complex from Anabaena sp. PCC 7120, the monomeric unit of the PSI oligomers (Anabaena sp. PCC 7120 (endogenous)) (UniProt P58576); experiment: negative staining EM, single-particle 2D class averaging; purified PSI tetramer sample, 0.15 mg/ml, 0.75% uranyl formate, 120 kV; 359 particles; PSI tetramer structure as reference
[2] = target: Photosystem I (PSI) complex from Anabaena sp. PCC 7120, the monomeric unit of the PSI oligomers (Anabaena sp. PCC 7120 (endogenous)) (UniProt P58576); experiment: negative staining EM, single-particle 2D class averaging; purified supercomplex 2 sample, 0.27 mg/ml, 0.75% uranyl formate, 120 kV; 822 particles; PSI tetramer models rigidly fitted over the 2D map
[3] = target: Photosystem I (PSI) complex from Anabaena sp. PCC 7120, the monomeric unit of the PSI oligomers (Anabaena sp. PCC 7120 (endogenous)) (UniProt P58576); experiment: negative staining EM, single-particle 2D class averaging; purified supercomplex 1 sample, 0.19 mg/ml, 0.75% uranyl formate, 120 kV; 2,518 particles; PSI tetramer and dimer models rigidly fitted over the 2D map
[4] = target: Photosystem I (PSI) complex from Anabaena sp. PCC 7120, the monomeric unit of the PSI oligomers (Anabaena sp. PCC 7120 (endogenous)) (UniProt P58576); experiment: cryo-EM structure; PSI supercomplex 2 purified by BN-PAGE and re-extraction (buffer A with 0.03% digitonin), about 2.5 mg/ml, fos-choline-8 at 1.0 mM added before blotting; single-particle map at 7.0 Å overall, no symmetry (C1); published PSI dimer (PDB 6K61) and tetramer (PDB 6TCL) models fitted as rigid bodies

- stoichiometry N [1]: 4
- stoichiometry N [2]: 8
- stoichiometry N [4]: 8
Substance: Photosystem I (PSI) complex from Anabaena sp. PCC 7120, the monomeric unit of the PSI oligomers (from UniProt P58576 1-752; P58565 1-741; P58564 24-164; P58583 1-86; P58577 1-172; Q8YNB0 1-32)
- stoichiometry N [3]: 6
